From patent US20250320281A1

Columns and labels:
Experiment in all cases: cell-based or functional assay
[1] = molecular target: HIV-1 Env of isolate MGRM-G-028 (HIV-1)
[2] = molecular target: aMLV envelope (negative control pseudovirus)
[3] = molecular target: HIV-1 MGRM-D-001 Env (pseudovirus) (HIV-1)
[4] = molecular target: HIV-1 Env of isolate MG RM-D-016 (HIV-1)
[5] = molecular target: HIV-1 Env of isolate MGRM-AG-009 (subtype AG) (HIV-1)
[6] = molecular target: HIV-1 Env of isolate MGRM-AG-003 (subtype AG) (HIV-1)
[7] = molecular target: HIV-1 envelope glycoprotein (Env) of isolate MGRM-C-008 (HIV-1)
[8] = molecular target: HIV-1 Env of isolate MGRM-A-001 (HIV-1)
[9] = molecular target: HIV-1 Env of isolate MG RM-D-008 (HIV-1)
[10] = molecular target: HIV-1 Env of isolate 92WR024 (HIV-1)
[11] = molecular target: HIV-1 Env of isolate MG RM-D-002 (HIV-1)
[12] = molecular target: HIV-1 Env of isolate MGRM-A-011 (subtype A) (HIV-1)
[13] = molecular target: HIV-1 Env of isolate MGRM-Chronic-B-001 (subtype B) (HIV-1)
[14] = molecular target: HIV-1 Env of isolate 92TH021 (pseudovirus) (HIV-1)
[15] = molecular target: HIV-1 Env of isolate MGRM-A-006 (HIV-1)
[16] = molecular target: HIV-1 Env of pseudovirus isolate MGRM-G-028 (HIV-1)
[17] = molecular target: HIV-1 envelope glycoprotein (Env) of isolate MGRM-C-014 (HIV-1)
[18] = molecular target: HIV-1 Env of isolate MG RM-D-020 (HIV-1)
[19] = molecular target: HIV-1 94UG103 Env (pseudovirus, clade A) (HIV-1)
[20] = molecular target: HIV-1 93IN905 Env (pseudovirus, clade C) (HIV-1)
[21] = molecular target: HIV-1 Env of isolate MGRM-D-018 (clade D), on pseudovirus (HIV-1)
[22] = molecular target: HIV-1 Env of isolate APV_17 (subtype B pseudovirus) (HIV-1)
[23] = molecular target: HIV-1 92UG024 envelope glycoprotein (Env) on pseudovirus (HIV-1)
[24] = molecular target: HIV-1 Env of isolate VLGCB3 (subtype B pseudovirus) (HIV-1)
[25] = molecular target: HIV-1 APV17 Env (pseudovirus, clade B) (HIV-1)
[26] = molecular target: HIV-1 Env of isolate MGRM-F1-008 (pseudovirus) (HIV-1)
[27] = molecular target: HIV-1 Env of isolate MGRM-F1-014 (HIV-1)
[28] = molecular target: HIV-1 Env of isolate MGRM-D-013 (clade D pseudovirus) (HIV-1)
[29] = molecular target: HIV-1 Env of pseudovirus MGRM-AG-005 (clade CRF_AG) (HIV-1)
[30] = molecular target: HIV-1 Env of isolate MGRM-D-024 (clade D pseudovirus) (HIV-1)
[31] = molecular target: HIV-1 envelope glycoprotein (Env) of isolate MGRM-A-014, clade A (HIV-1)
[32] = molecular target: HIV-1 Env of isolate CAAN.A2 (Acute), clade B, on pseudovirus (HIV-1)
[33] = molecular target: HIV-1 Env of pseudovirus MGRM-AE-006 (clade CRF01_AE) (HIV-1)
[34] = molecular target: HIV-1 Env of pseudovirus MGRM-AG-001 (clade CRF_AG) (HIV-1)
[35] = molecular target: HIV-1 Env of pseudovirus MGRM-AE-005 (clade CRF01_AE) (HIV-1)

4995_E20 (PGT-142) (antibody), sequence (VH): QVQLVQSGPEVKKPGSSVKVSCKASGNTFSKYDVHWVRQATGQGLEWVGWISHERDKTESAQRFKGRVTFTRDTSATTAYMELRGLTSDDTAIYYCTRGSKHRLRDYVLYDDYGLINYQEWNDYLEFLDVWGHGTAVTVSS
4995_E20 (PGT-142) (antibody), sequence (VL): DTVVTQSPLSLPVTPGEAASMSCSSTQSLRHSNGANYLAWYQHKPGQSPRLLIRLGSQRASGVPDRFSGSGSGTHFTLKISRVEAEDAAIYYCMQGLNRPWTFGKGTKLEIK
4970_K22 (PGT-144) (antibody), sequence (VH): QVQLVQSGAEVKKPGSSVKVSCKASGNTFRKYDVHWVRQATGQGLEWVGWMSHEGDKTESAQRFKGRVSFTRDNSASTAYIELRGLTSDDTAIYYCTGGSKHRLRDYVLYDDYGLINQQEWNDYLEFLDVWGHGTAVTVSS
4970_K22 (PGT-144) (antibody), sequence (VL): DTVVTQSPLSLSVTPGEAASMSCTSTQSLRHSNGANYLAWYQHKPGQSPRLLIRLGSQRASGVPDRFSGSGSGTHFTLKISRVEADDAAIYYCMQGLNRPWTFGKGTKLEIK
4980_N08 (PGT-143) (antibody), sequence (VH): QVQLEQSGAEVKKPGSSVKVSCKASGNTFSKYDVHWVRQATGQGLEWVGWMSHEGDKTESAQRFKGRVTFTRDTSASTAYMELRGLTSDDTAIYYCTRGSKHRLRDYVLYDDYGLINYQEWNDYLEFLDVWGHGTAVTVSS
4980_N08 (PGT-143) (antibody), sequence (VL): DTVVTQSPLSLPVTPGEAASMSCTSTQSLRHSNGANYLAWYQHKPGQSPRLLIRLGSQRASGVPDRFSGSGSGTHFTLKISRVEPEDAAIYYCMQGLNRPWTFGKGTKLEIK

With 4980_N08 (PGT-143) (antibody) the IC50 (µg/mL), pseudovirus neutralization [1] was 43 µg/mL, the IC50 (neutralizing activity, pseudovirus) [2] was over 10 µg/mL and the IC50 (µg/mL), pseudovirus neutralization [2] was over 50 µg/mL. It also gave an IC50 (neutralizing activity, pseudovirus) [3] of over 10 µg/mL.

Work on 4995_E20 (PGT-142) (antibody) yielded an IC50 (µg/mL), pseudovirus neutralization [1] of 30.3 µg/mL, an IC50 (neutralizing activity, pseudovirus) [2] of over 10 µg/mL and an IC50 (µg/mL), pseudovirus neutralization [2] of over 50 µg/mL. It also gave an IC50 (neutralizing activity, pseudovirus) [3] of over 10 µg/mL.

For 5114_A19 (PGT-128) (antibody), the IC50 (µg/mL), pseudovirus neutralization [4] was over 50 µg/mL, the IC50 (µg/mL), pseudovirus neutralization [5] was 0.021 µg/mL and the IC50 (µg/mL), pseudovirus neutralization [6] was 34.8 µg/mL. The IC50 (µg/mL), pseudovirus neutralization [7] was 0.373 µg/mL, the IC50 [8] was over 50 µg/mL and the IC50 (µg/mL), pseudovirus neutralization [9] was 0.033 µg/mL. For the same substance, the IC50 [10] was over 50 µg/mL, the IC50 (µg/mL), pseudovirus neutralization [11] was 0.011 µg/mL and the IC50 (µg/mL), pseudovirus neutralization [12] was over 50 µg/mL. The IC50 neutralization [13] was over 50 µg/mL, the Polyclonal Transfectant Neutralization Index [14] was 10 and the Primary Neutralization Index (B cell culture supernatant) [14] was 6.6. For the same substance, the IC50 [15] was over 50 µg/mL, the IC50 (µg/mL), pseudovirus neutralization [16] was 0.008 µg/mL and the IC50 (µg/mL), pseudovirus neutralization [17] was over 50 µg/mL. It also gave an IC50 (µg/mL), pseudovirus neutralization [18] of 0.011 µg/mL.

Work on 4858_P08 (PGT-123) (antibody) yielded an IC50 neutralization [19] of 0.846 µg/mL, an IC50 neutralization [20] of 0.0071 µg/mL and an IC50, pseudovirus neutralization [21] of 0.0047 µg/mL. The IC50 (µg/mL), pseudovirus neutralization [22] was 0.114 µg/mL, the neutralization IC50 [23] was over 10 µg/mL and the neutralization IC80 [23] was over 10 µg/mL. For the same substance, the neutralization IC90 [23] was over 10 µg/mL, the neutralization IC95 [23] was over 10 µg/mL and the neutralization IC50 (pseudovirus) [3] was 0.215 µg/mL. For the same substance, the IC50 (µg/mL), pseudovirus neutralization [24] was 0.004 µg/mL, the IC50 neutralization [25] was 0.18 µg/mL and the IC50, pseudovirus neutralization [26] was over 50 µg/mL. For the same substance, the IC50 (µg/mL), pseudovirus neutralization [16] was 0.008 µg/mL and the IC50 (µg/mL), pseudovirus neutralization [27] was 0.111 µg/mL.

VRC01 (antibody) showed an IC50 [4] of 0.452 µg/mL, an IC50 (µg/mL), pseudovirus neutralization [1] of 0.164 µg/mL and an IC50 (µg/mL), pseudovirus neutralization [2] of over 50 µg/mL. For the same substance, the IC50 [27] was 0.056 µg/mL and the IC50 [18] was 0.192 µg/mL.

Substance PGV04 (antibody) has an IC50 (µg/mL), pseudovirus neutralization [1] of 0.352 µg/mL and an IC50 (µg/mL), pseudovirus neutralization [2] of over 50 µg/mL.

4877_D15 (PGT-122) (antibody) gave an IC50 neutralization [19] of 1.46 µg/mL, an IC50 neutralization [20] of 0.0138 µg/mL and an IC50, pseudovirus neutralization [21] of 0.0115 µg/mL. The IC50 (µg/mL), pseudovirus neutralization [22] was 0.25 µg/mL, the neutralization IC50 (pseudovirus) [3] was 0.867 µg/mL and the IC50 (µg/mL), pseudovirus neutralization [24] was 0.008 µg/mL. It also gave an IC50 neutralization [25] of 0.522 µg/mL, an IC50, pseudovirus neutralization [26] of over 50 µg/mL and an IC50 (µg/mL), pseudovirus neutralization [16] of 0.01 µg/mL. The IC50 (µg/mL), pseudovirus neutralization [27] was 0.195 µg/mL.

4970_K22 (PGT-144) (antibody) gave an IC50 (µg/mL), pseudovirus neutralization [1] of over 50 µg/mL, an IC50 (neutralizing activity, pseudovirus) [2] of over 10 µg/mL and an IC50 (µg/mL), pseudovirus neutralization [2] of over 50 µg/mL. For the same substance, the IC50 (neutralizing activity, pseudovirus) [3] was over 10 µg/mL.

Substance 1496_C09 (PG9) (TCN-109) (antibody) has an IC50 neutralization [19] of 0.31 µg/mL, an IC50 neutralization [20] of 0.048 µg/mL and an IC50 (µg/ml), pseudovirus neutralization [28] of 0.06 µg/mL. For the same substance, the IC50, pseudovirus neutralization [21] was 0.0444 µg/mL, the IC50 (µg/mL), pseudovirus neutralization [1] was 0.891 µg/mL and the IC50 [29] was 29.7 µg/mL. The IC50 (µg/ml), pseudovirus neutralization [30] was 0.03 µg/mL, the IC50 (µg/ml), pseudovirus neutralization [31] was 0.62 µg/mL and the IC50 (µg/ml), pseudovirus neutralization [32] was 5.67 µg/mL. The IC50 [33] was 0.05 µg/mL, the IC50 [34] was 8.83 µg/mL and the IC50 [35] was 0.16 µg/mL.
